Test results taken from US20030236190A1 (published 2003).
Positions of bridges follow the written chain, without caps; N, C: chain ends. Non-standard residues stand in square brackets, D forms with d. No end group written: not given here.

Experiments:
[1] = target: T1, Soluble IGF-1R (R&D Systems, Cat. # 391-GR/CF); recombinant human IGF-1R (human, UniProt P08069 31-935); experiment: phage ELISA, vs IR
T1 construct: extracellular domain; Eu3+-labelled in the TR-FRET assays; also called sIGF-1R; rhIGF-1R

[2] = target: T2, Insulin receptor prepared according to Bass et al., 1996: soluble human insulin receptor-immunoglobulin heavy … (human, UniProt P06213 28-956); experiment: phage ELISA, vs IGF-1R
T2 construct: extracellular domain; Eu3+-labelled in TR-FRET; also called IR; sIR-Fc; not shown: immunoglobulin heavy chain constant domains that replace the transmembrane and i

[3] = target: T2, Insulin receptor prepared according to …; experiment: phage ELISA vs milk
[4] = target: T1, Soluble IGF-1R (R&D Systems, Cat. # …); experiment: phage ELISA vs milk
[5] = target: human insulin receptor (HIR) (human, UniProt P06213 28-1382, limits assumed); experiment: 125I-insulin competition, solubilised HIR

Binder	IGF-1R/IR Comparison [1]	IR/IGF-1R Comparison [2]	Ratio over Background [3]	Ratio over Background [4]	Kd [5]
TFYSCLASLLTGTPQPNRGPWERCR (disulfide 5-24 (inferred)) [20C-3-G3-IGFR]	27 ratio	< 0.1 ratio	1.2 fold	32.3 fold	
VERSASSQDGNFYDWFVVQIR [A6S-2-D1-IR]	2.6 ratio	0.4 ratio	12 fold	30.6 fold	
SLEEEWAQIQHELYGPAESESFYD[dW]FERQL [S596]					0.045 nM
LEEEWAQIQREVWHS[dP]ASESF[dY]D[dW]FERQL [S595]					0.62 nM
FYVQQWGHENFYDWFDRQVSQSGGAG [H2CA-4-F1-IGFR]	3.8 ratio	0.3 ratio	0.9 fold	3.5 fold	
PPLASDLDVQFYGWFVQQVSPPGRGG [H2CA-2-B3-IGFR]	3.6 ratio	0.3 ratio	1 fold	3.8 fold	
RCGRELYHSTFYDWFDRQVAGRTCPS [H2CA-1-A7-IGFR]	3.7 ratio	0.3 ratio	0.6 fold	2.2 fold	
SLEEEWAQIQAEVYGNPNSESFYDWFERQL [S602]					0.031 nM
GAPVDQLHEDFYDWFVRQVSQAATG [E2CA-2-B2-IGFR]	3.5 ratio	0.3 ratio	1 fold	3.4 fold	
QSPVGSSHEDFYDWFFRQVAQSGAHQ [N2CA-3-D6-IGFR]	4 ratio	0.3 ratio	2.2 fold	9 fold	
FFYDCLAALLQGVARYHDLCAVEIT (disulfide 5-20 (inferred)) [20C-4-C7-IGFR]	21.8 ratio	< 0.1 ratio	1.3 fold	28 fold	
LRRQAPVEENFYDWFVRQVSGDRVGG [H2CA-3-D7-IGFR]	3.7 ratio	0.3 ratio	0.8 fold	3 fold	
FRTLAAQHDSFYDWFDRQVSGAAGER [H2CA-3-C11-IGFR]	2.1 ratio	0.5 ratio	1.6 fold	3.3 fold	
SLEEEWAQIECEVWGRCWHHSFYDWFERQL [S594]					0.071 nM
QAVQPGFHEEFYDWFVRQVSTGVGGG [H2CA-4-H4-IGFR]	4.2 ratio	0.2 ratio	1 fold	4.1 fold	
TLDGGSFEEQFYDWFVRQLSYRTNPD [H2CA-4-G11-IGFR]	3.9 ratio	0.3 ratio	2.5 fold	9.5 fold	
LGYQEPFQQNFYDWFVRQVSGAENAG [E2CA-3-E8-IGFR]	2.9 ratio	0.3 ratio	2.2 fold	6.3 fold	
RAGSSDFHEDFYEWFVRQVSLSLKGK [H2CA-2-B9-IGFR]	4.2 ratio	0.2 ratio	1.7 fold	7 fold	
GVRAMSFYDALVSVLGLGPSG [20E2B-1-A6-IGFR]	16.8 ratio	0.1 ratio	1.1 fold	18.1 fold	
NYRRQVFNGNFYDWFDRQVFSLVTPG [142CA-3-D8-IGFR]	4 ratio	0.3 ratio	1.8 fold	7.2 fold	

Binder	IGF-1R/IR Comparison [1]	IR/IGF-1R Comparison [2]	Ratio over Background [3]	Ratio over Background [4]	Kd [5]
LQPCSGFYECIERLIGVKLSG (disulfide 4-10 (inferred)) [20E2Bβ-4-G7-IR]	15.8 ratio	0.1 ratio	1.6 fold	25.2 fold	
SSIGGGFHENFYDWFSRQLSQSPPLK [N2CA-4-F7-IGFR]	4.1 ratio	0.2 ratio	0.8 fold	3.2 fold	
RGQSDAFYSGLWALIGLSDG [R20β-4-A6-IR]	17.3 ratio	0.1 ratio	1.5 fold	25.9 fold	
AVRATRFDEAFYDWFVRQISDGQGNK [H2CA-4-86-GFR]	6.4 ratio	0.2 ratio	1.1 fold	7.3 fold	
SQAGSAFYAWFDQVLRTVHSA [20E2Bβ-4-G6-IR]	3.3 ratio	0.3 ratio	1.9 fold	6.2 fold	
TSEVQRRSQDNFYDWFVAQVA [A6S-3-E2-IR]	2.5 ratio	0.4 ratio	9.8 fold	24.7 fold	
SLEEEWAQIQEDLYGANHNESFYDWFERQL [S601]					0.18 nM
CCLLCRFQQNFYDWFVCQGISRLRPL (disulfide (positions not given here); also: disulfide among the four cysteines, pairing not given here) [X2CA-2-B4-IGFR]	3.6 ratio	0.3 ratio	1.1 fold	4.1 fold	
SLEEEWAQIECEVYGRGCPSESFYDWFERQL (not fully specified; N-terminal acetyl) [S597]					0.0085 nM
GFREGNFYEWFQAQVT [E4Da-4-H2-IR]	4.1 ratio	0.2 ratio	8.2 fold	33.9 fold	
HLADGQFHEKFYDWFERQISSRCNDC [H2CA-3-E11-IGFR]	2.2 ratio	0.5 ratio	1 fold	2.2 fold	
GFREGSFYDWFQAQVT [E4Dα-2-D11-IR]	3.4 ratio	0.3 ratio	3.3 fold	11.1 fold	
APDPSDFQEIFYDWFVRQVSRMPGGG [H2CA-1-A3-IGFR]	5.1 ratio	0.2 ratio	0.8 fold	3.8 fold	
EAASLGSQDRNFYDWFVRQVV [A6S-2-D11-IR]	2.8 ratio	0.4 ratio	13.9 fold	37.4 fold	
VNQSGSIHENFYDWFERQVSHQRGVR [H2CA-4-F1O-IGFR]	5.9 ratio	0.2 ratio	1 fold	5.7 fold	
SSCDGAGHESFYEWFVRQVSGCRSV (not fully specified (bridges); cysteine pairing not given here) [H2CA-3-C8-IGFR]	4.8 ratio	0.2 ratio	1.2 fold	5.6 fold	
SLEEEWAQIQHELWPVEKGESFYDWFERQL [S605]					0.094 nM
SIEEEWAQIKCDVWGRGCPSY [S593]					0.022 nM
Ac-SLEEEWAQIQEDLYGANHNESFYDWFERQL [S603]					0.015 nM
